Measurements from PMC9482650, “Quantitative fragmentomics allow affinity mapping of interactomes” (Nature Communications, 2022).

What was measured:
Experiment in all cases: holdup assay
Parameters in all cases: key: below the threshold = too weak to quantify, mostly under pKd 3.1 to 4
Details in all cases: plain residues with an end cap or a label only (N-terminal biotin on a linker: ttds)
[1] = molecular target: MAGI1_3, Q96QZ7
[2] = molecular target: T1, SIPA1L3, O60292
T1 sequence (O60292 961-1052, limits assumed, looked up): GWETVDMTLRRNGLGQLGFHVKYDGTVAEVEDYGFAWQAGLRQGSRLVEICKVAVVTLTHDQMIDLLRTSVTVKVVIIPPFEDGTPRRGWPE

[3] = molecular target: SDCBP_1, O00560
Sequence of SDCBP_1, O00560 (O00560 111-198): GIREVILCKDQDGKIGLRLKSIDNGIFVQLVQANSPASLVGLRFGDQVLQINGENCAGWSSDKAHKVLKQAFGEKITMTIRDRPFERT

[4] = molecular target: T2, PDZD11, Q5EBL8
T2 sequence (Q5EBL8 42-139, limits assumed, looked up): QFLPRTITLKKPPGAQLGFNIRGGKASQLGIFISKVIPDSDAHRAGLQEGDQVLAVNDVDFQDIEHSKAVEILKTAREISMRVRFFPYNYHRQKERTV

[5] = molecular target: AHNAK2, Q8IVF2
Sequence of AHNAK2, Q8IVF2 (Q8IVF2 108-193): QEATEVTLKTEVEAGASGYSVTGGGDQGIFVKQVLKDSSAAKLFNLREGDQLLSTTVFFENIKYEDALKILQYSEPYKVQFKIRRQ

[6] = molecular target: T3, PREX2_2, Q70Z35
T3 sequence (Q70Z35 672-764, limits assumed, looked up): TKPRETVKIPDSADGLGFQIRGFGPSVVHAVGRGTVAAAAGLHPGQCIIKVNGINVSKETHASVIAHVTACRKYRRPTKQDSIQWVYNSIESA

[7] = molecular target: PARD3B_3, Q8TEW8
Sequence of PARD3B_3, Q8TEW8 (Q8TEW8 490-594): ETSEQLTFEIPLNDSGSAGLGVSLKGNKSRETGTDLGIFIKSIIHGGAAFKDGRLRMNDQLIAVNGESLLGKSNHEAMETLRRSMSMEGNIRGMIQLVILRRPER

[8] = molecular target: T4, MPP5, Q8N3R9
T4 sequence (Q8N3R9 251-346, limits assumed, looked up): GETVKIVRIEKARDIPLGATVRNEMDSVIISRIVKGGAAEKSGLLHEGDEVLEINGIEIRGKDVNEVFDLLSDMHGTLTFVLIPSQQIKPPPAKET

[9] = molecular target: MAGI3_4, Q5TCQ9
Sequence of MAGI3_4, Q5TCQ9 (Q5TCQ9 716-815): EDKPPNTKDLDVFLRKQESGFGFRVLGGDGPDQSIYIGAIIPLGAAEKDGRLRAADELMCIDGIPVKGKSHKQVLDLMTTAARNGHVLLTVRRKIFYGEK

[10] = molecular target: T5, USH1C_1, Q9Y6N9
T5 sequence (Q9Y6N9 82-179, limits assumed, looked up): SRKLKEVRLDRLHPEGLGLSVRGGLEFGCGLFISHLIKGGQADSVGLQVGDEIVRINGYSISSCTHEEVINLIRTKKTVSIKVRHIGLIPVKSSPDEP

[11] = molecular target: DVL2, O14641
Sequence of DVL2, O14641 (O14641 260-359): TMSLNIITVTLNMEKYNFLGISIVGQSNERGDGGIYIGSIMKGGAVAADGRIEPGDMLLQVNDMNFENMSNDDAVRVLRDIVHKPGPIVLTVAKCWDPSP

[12] = molecular target: T6, SHROOM4, Q9ULL8
T6 sequence (Q9ULL8 5-102, limits assumed, looked up): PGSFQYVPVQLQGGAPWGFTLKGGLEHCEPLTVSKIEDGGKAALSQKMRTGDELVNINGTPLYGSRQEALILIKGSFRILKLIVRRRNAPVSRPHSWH

[13] = molecular target: T7, USH1C_2, Q9Y6N9
T7 sequence (Q9Y6N9 206-303, limits assumed, looked up): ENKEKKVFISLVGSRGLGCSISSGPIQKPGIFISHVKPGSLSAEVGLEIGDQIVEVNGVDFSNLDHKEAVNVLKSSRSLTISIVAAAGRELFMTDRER

[14] = molecular target: T8, MPDZ_6, O75970
T8 sequence (O75970 1003-1099, limits assumed, looked up): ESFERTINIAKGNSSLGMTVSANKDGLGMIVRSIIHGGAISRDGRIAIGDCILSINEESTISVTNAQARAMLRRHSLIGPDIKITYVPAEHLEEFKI

[15] = molecular target: MAGI3_6, Q5TCQ9
Sequence of MAGI3_6, Q5TCQ9 (Q5TCQ9 1014-1103): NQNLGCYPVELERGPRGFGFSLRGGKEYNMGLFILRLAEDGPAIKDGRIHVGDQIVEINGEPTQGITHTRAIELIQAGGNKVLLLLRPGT

[16] = molecular target: T9, TJP3_2, O95049
T9 sequence (O95049 190-282, limits assumed, looked up): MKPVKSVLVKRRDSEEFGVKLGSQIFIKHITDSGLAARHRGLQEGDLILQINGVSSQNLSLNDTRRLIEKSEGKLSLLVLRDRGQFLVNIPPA

[17] = molecular target: PDLIM4, P50479
Sequence of PDLIM4, P50479 (P50479 1-83): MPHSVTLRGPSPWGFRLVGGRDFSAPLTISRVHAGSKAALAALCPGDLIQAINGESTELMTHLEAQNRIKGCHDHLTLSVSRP

[18] = molecular target: PTPN13_2, Q12923
Sequence of PTPN13_2, Q12923 (Q12923 1363-1462): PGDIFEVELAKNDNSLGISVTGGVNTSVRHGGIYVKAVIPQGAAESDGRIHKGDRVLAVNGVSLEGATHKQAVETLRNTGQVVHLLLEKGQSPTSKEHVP

[19] = molecular target: T10, PDZD7_2, Q9H5P4
T10 sequence (Q9H5P4 205-303, limits assumed, looked up): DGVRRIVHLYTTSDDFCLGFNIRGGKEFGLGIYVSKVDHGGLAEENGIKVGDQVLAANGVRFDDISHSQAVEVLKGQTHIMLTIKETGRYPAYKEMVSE

[20] = molecular target: PARD3_1, Q8TEW0
Sequence of PARD3_1, Q8TEW0 (Q8TEW0 264-372): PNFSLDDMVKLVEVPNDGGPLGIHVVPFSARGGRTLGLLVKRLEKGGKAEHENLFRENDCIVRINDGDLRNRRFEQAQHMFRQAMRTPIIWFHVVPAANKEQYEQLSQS

[21] = molecular target: MAGI1_6, Q96QZ7
Sequence of MAGI1_6, Q96QZ7 (Q96QZ7 1146-1238): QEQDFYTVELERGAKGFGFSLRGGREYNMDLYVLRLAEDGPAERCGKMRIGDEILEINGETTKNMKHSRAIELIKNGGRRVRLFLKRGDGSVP

[22] = molecular target: T11, MPP1, Q00013
T11 sequence (Q00013 66-162, limits assumed, looked up): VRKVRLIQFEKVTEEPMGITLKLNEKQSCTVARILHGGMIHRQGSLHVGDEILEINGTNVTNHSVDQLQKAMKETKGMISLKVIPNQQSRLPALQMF

[23] = molecular target: T12, PDZD7_1, Q9H5P4
T12 sequence (Q9H5P4 81-178, limits assumed, looked up): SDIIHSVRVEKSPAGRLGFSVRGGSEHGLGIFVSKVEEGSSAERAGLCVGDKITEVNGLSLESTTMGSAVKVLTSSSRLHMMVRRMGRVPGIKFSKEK

[24] = molecular target: T13, PTPN13_4, Q12923
T13 sequence (Q12923 1783-1878, limits assumed, looked up): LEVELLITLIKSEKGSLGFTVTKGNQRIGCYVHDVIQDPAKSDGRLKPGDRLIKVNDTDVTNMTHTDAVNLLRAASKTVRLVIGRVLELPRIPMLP

[25] = molecular target: PDZRN4_2, Q6ZMN7
Sequence of PDZRN4_2, Q6ZMN7 (Q6ZMN7 389-498): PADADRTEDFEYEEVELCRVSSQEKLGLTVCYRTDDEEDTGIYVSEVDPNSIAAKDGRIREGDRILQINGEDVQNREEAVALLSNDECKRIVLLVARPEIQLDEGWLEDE

Sequence of MAGI1_3, Q96QZ7 (Q96QZ7 638-725): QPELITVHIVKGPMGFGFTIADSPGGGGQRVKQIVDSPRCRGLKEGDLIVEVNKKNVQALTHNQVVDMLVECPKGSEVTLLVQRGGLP

Question: MERLRVETDV [ARHGEF16, Q5VV41] was tested. Which pKd [1] did it give?
Answer: below the threshold

Question: And the pKd [2]?
Answer: below the threshold

Question: And the pKd [3]?
Answer: below the threshold

Question: And the pKd [4]?
Answer: below the threshold

Question: What about the pKd [5] of the same binder?
Answer: below the threshold

Question: What about the pKd [6] of the same binder?
Answer: 4.17

Question: What about the pKd [7] of the same binder?
Answer: below the threshold

Question: And the pKd [8]?
Answer: below the threshold

Question: And the pKd [9]?
Answer: below the threshold

Question: What about the pKd [10] of the same binder?
Answer: below the threshold

Question: And the pKd [11]?
Answer: below the threshold

Question: What about the pKd [12] of the same binder?
Answer: 4.06

Question: And the pKd [13]?
Answer: below the threshold

Question: What about the pKd [14] of the same binder?
Answer: below the threshold

Question: And the pKd [15]?
Answer: below the threshold

Question: What about the pKd [16] of the same binder?
Answer: below the threshold

Question: What about the pKd [17] of the same binder?
Answer: below the threshold

Question: And the pKd [18]?
Answer: below the threshold

Question: And the pKd [19]?
Answer: 4.24

Question: And the pKd [20]?
Answer: below the threshold

Question: What about the pKd [21] of the same binder?
Answer: 4.33

Question: What about the pKd [22] of the same binder?
Answer: 4.56

Question: What about the pKd [23] of the same binder?
Answer: below the threshold

Question: And the pKd [24]?
Answer: below the threshold

Question: And the pKd [25]?
Answer: below the threshold

Question: Which pKd [1] does the source give for HIVEALETDV [PBK, Q96KB5] here?
Answer: 4.43

Question: And the pKd [2]?
Answer: below the threshold

Question: What about the pKd [3] of the same binder?
Answer: below the threshold

Question: What about the pKd [4] of the same binder?
Answer: below the threshold

Question: What about the pKd [5] of the same binder?
Answer: below the threshold

Question: And the pKd [6]?
Answer: below the threshold

Question: And the pKd [7]?
Answer: below the threshold

Question: And the pKd [8]?
Answer: below the threshold

Question: What about the pKd [9] of the same binder?
Answer: below the threshold

Question: What about the pKd [10] of the same binder?
Answer: below the threshold

Question: What about the pKd [11] of the same binder?
Answer: 5.15

Question: What about the pKd [12] of the same binder?
Answer: below the threshold

Question: And the pKd [13]?
Answer: below the threshold

Question: And the pKd [14]?
Answer: below the threshold

Question: And the pKd [15]?
Answer: 4.62

Question: What about the pKd [16] of the same binder?
Answer: below the threshold

Question: And the pKd [17]?
Answer: below the threshold

Question: What about the pKd [18] of the same binder?
Answer: below the threshold

Question: What about the pKd [19] of the same binder?
Answer: below the threshold

Question: What about the pKd [20] of the same binder?
Answer: below the threshold

Question: And the pKd [21]?
Answer: 4.91

Question: What about the pKd [22] of the same binder?
Answer: below the threshold

Question: What about the pKd [23] of the same binder?
Answer: below the threshold

Question: What about the pKd [24] of the same binder?
Answer: below the threshold

Question: And the pKd [25]?
Answer: below the threshold

Question: What does the source list for SEKHFRETEV [HTLV1-TAX1, P03409]?
Answer: pKd [1]: 4.75; pKd [2]: below the threshold; pKd [3]: below the threshold; pKd [4]: below the threshold; pKd [5]: below the threshold; pKd [6]: below the threshold; pKd [7]: below the threshold; pKd [8]: below the threshold; pKd [9]: 3.79; pKd [10]: below the threshold; pKd [11]: below the threshold; pKd [12]: below the threshold; pKd [13]: below the threshold; pKd [14]: below the threshold; pKd [15]: 4.54; pKd [16]: below the threshold; pKd [17]: 4.54; pKd [18]: below the threshold; pKd [19]: 4.05; pKd [20]: below the threshold; pKd [21]: 4.41; pKd [22]: below the threshold; pKd [23]: 3.85; pKd [24]: below the threshold; pKd [25]: below the threshold

Question: What does the source list for IQREDQETAV [DGKZ, Q13574]?
Answer: pKd [1]: 4.57; pKd [2]: below the threshold; pKd [3]: below the threshold; pKd [4]: below the threshold; pKd [5]: below the threshold; pKd [6]: below the threshold; pKd [7]: below the threshold; pKd [8]: below the threshold; pKd [9]: below the threshold; pKd [10]: below the threshold; pKd [11]: 4.5; pKd [12]: 4.76; pKd [13]: below the threshold; pKd [14]: below the threshold; pKd [15]: below the threshold; pKd [16]: below the threshold; pKd [17]: below the threshold; pKd [18]: below the threshold; pKd [19]: below the threshold; pKd [20]: below the threshold; pKd [21]: 4.35; pKd [22]: below the threshold; pKd [23]: below the threshold; pKd [24]: below the threshold; pKd [25]: below the threshold

Question: Which pKd [1] does the source give for NYWPGKETQL [SLCO1C1, Q9NYB5] here?
Answer: below the threshold

Question: What about the pKd [2] of the same binder?
Answer: below the threshold

Question: And the pKd [3]?
Answer: below the threshold

Question: And the pKd [4]?
Answer: below the threshold

Question: What about the pKd [5] of the same binder?
Answer: 4.41

Question: And the pKd [6]?
Answer: below the threshold

Question: And the pKd [7]?
Answer: below the threshold

Question: What about the pKd [8] of the same binder?
Answer: below the threshold

Question: And the pKd [9]?
Answer: below the threshold

Question: What about the pKd [10] of the same binder?
Answer: below the threshold

Question: What about the pKd [11] of the same binder?
Answer: below the threshold

Question: And the pKd [12]?
Answer: below the threshold

Question: What about the pKd [13] of the same binder?
Answer: below the threshold

Question: And the pKd [14]?
Answer: below the threshold

Question: And the pKd [15]?
Answer: 4.36

Question: What about the pKd [16] of the same binder?
Answer: below the threshold

Question: And the pKd [17]?
Answer: below the threshold

Question: And the pKd [18]?
Answer: below the threshold

Question: And the pKd [19]?
Answer: below the threshold

Question: What about the pKd [20] of the same binder?
Answer: below the threshold

Question: What about the pKd [21] of the same binder?
Answer: below the threshold

Question: And the pKd [22]?
Answer: below the threshold

Question: What about the pKd [23] of the same binder?
Answer: below the threshold

Question: What about the pKd [24] of the same binder?
Answer: below the threshold

Question: What about the pKd [25] of the same binder?
Answer: below the threshold
